From patent US20250270320A1 (EUTILEX, published 2025) come the findings set out here.

Test [1] deals with T1, recombinant human PD-1-His protein (ECD) (human, UniProt Q15116 25-170).
T1 construct: extracellular domain; Used as ELISA coat and SPR partner; also called rhprotein; antigen; not shown: His tag
The test is described as follows: SPR, drawn table; no unit in the KD column, the Affinity column gives 9.7 nM (the text prints only 9.7 nM). (In general: Surface plasmon resonance follows binding to a sensor surface in real time, without labels.)

Test [2] has as its target T1, recombinant human PD-1-His protein (ECD). The test is described as follows: SPR.
Test [3] deals with T2, human PD-1 expressed on cells (human, UniProt Q15116 25-288).
T2 construct: whole, on cells; also called hPD-1; 293 cell line stably expressing human PD-1
The test is described as follows: flow cytometry on activated hCD8 T cells from human blood, 2nd-hIgG-PE detection; 2nd-hIgG-PE alone 1.73.

Test [4] concerns the target T2, human PD-1 expressed on cells. The test is described as follows: cell-based or functional assay.
The target of test [5] is T3, mouse PD-1 antigen (mouse, UniProt Q02242 25-167, limits assumed).
T3 construct: ELISA antigen
T3 sequence (looked up): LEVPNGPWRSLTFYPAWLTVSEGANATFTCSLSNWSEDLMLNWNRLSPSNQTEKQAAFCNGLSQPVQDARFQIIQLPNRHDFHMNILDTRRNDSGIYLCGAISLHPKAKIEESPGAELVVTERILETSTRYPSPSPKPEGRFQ
The test is described as follows: ELISA on the PD-1 antigen of the species, antibody 500 to 3.90625 ng in 1/2 steps.

The target in test [6] is T2, human PD-1 expressed on cells. Briefly: flow cytometry on cells overexpressing hPD-1. Background: Flow cytometry measures light scatter and fluorescence of single cells or particles in a stream.
The target in test [7] is T1, recombinant human PD-1-His protein (ECD). Briefly: SPR, drawn table; the column heads print no unit, units as in the table of FIG 7b.
Test [8] has the same target. The test is described as follows: SPR, drawn table; no unit in the KD column, the Affinity column gives 5.8 nM (the text prints only 5.8 nM).
Test [9] has the same target. Briefly: ELISA on coated recombinant human PD-1-His protein. The method, then:
For ELISA, the recombinant human PD-1-His protein was O/N coated on a 96-well ELISA plate at 4° C., and blocked with 5% non-fat skim milk at RT for 1 hr. The antibody was treated with ½ serial dilution of each hybridoma culture medium from 100 ul at RT for 2 hr, and detected by anti-mIgG-HRP.
In addition, each purified humanized antibody was bound to 293 cells expressing human PD-1 and analyzed by flow cytometry.
On the technique in general: An ELISA detects its analyte on a solid surface through an enzyme-linked reagent.

T1 sequence (Q15116 25-170): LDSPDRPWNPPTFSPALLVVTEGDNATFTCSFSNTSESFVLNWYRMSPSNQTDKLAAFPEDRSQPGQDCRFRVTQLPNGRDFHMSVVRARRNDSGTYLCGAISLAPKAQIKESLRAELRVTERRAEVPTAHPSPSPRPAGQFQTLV
T2 sequence (Q15116 25-288): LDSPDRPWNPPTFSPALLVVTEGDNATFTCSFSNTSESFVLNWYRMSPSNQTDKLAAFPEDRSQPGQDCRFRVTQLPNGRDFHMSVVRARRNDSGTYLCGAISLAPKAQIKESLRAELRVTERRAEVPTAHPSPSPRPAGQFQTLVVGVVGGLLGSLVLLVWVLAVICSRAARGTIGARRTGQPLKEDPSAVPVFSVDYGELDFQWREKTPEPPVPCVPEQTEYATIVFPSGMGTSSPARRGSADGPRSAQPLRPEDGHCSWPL

B1: 7C5-T15-01 (antibody, human IgG4, V domains shown)
VH: EVQLVESGGGLVKPGGSLRLSCAASGFTFSSFGMSWVRQAPGKGLELVATIYSNGDYTYYPDSVKGRFTVSRDNAKNSLYLQMNSLRAEDTAVYYCARYYGNYGGYFDYWGQGTLVTVSS
VL: AIQMTQSPSSLSASVGDRVTITCKASQSVWDDLTWYQQKPGKAPKLLIYYASNRYTGVPSRFSGSGSGTDFTLTISSLQPEDFATYYCQQDYSSPPTFGGGTKVEIK
On to B1, for which the Kd (usually the constant that tells how readily two partners part at equilibrium) in [1] is 9.65 nM; in [2] it was 9.7 nM. Also, the results for the “percent of cells in the positive quadrant” value in test [3] and in [6] were 20.3% and 97.3%, respectively. Also, the “EC50 (read off the curve); PD-1/PD-L1 Blockade Bioassay, luciferase RAU” value in test [4] is around 0.7 mg/L. Besides, the binding result in test [5] is reported as “no binding (tested: 500 ng)”. Moreover, the koff (as a rule, a measure of how fast the partners let go of each other) in test [7] came out at 0.000632 s⁻¹. Also, the kon (as a rule, the second-order rate constant of association) in [7] stood at 65500 M⁻¹ s⁻¹.

B2: 2B3W-T14-05 (antibody, human IgG4, V domains shown)
VH: EVQLVESGGGLVQPGGSLRLSCAASGFVFSNYDMSWVRQAPGKGLEWVAYITIGGGTTYYPDTVKGRFTISRDNAKNSLYLQMNSLRAEDTAVYYCARWRYDPLFAMDYWGQGTTVTVSS
VL: DIVLTQTPLSLSVTPGQPASISCRASESVTDYGISFMNWFLQKPGQPPQLLIYAASNQGSGVPDRFSGSGSGTDFTLKISRVEAEDVGVYYCQQSKEVPWTFGQGTKVEIK
notes: also called EU135-T14.05
Turning to B2, the Kd in [8] was found to be 5.79 nM. Further, in [2], the equilibrium dissociation constant (Kd) worked out at 5.8 nM. For the same molecule, in test [3], the “percent of cells in the positive quadrant” value came to 17%. Further, in [4], the “EC50 (read off the curve); PD-1/PD-L1 Blockade Bioassay, luciferase RAU” value was around 0.8 mg/L. Besides, the binding result in [5] is given as “no binding (tested: 500 ng)”. Moreover, in test [7], the dissociation rate constant (koff) is 0.000508 s⁻¹ and the kon came to 87800 M⁻¹ s⁻¹.

B3: humanized antibody 2B3R (antibody, V domains shown)
VH: EVQLVESGGGLVQPGGSLRLSCAASGFVFSNYDMSWVRQAPGKGLEWVAYITIGGGTTYYPDTVKGRFTISRDNAKNSLYLQMNSLRAEDTAVYYCARRVYDPLYAMDYWGQGTTVTVSS
VL: DIVLTQTPLSLSVTPGQPASISCRASESVDNYGISFMNWFLQKPGQPPQLLIYAASNQGSGVPDRFSGSGSGTDFTLKISRVEAEDVGVYYCQQSKEVPWTFGQGTKVEIK
notes: Humanized antibody
Turning to B3, the binding result in test [9] is given as “no binding”.
